For assay [1], the target named is T1, chimpanzee PSMA on HEK cells (chimpanzee, UniProt H2Q3K5 1-750).
T1 construct: also called chimp-PSMA HEK; PSMG9
As to the kind of experiment: flow cytometry, mammalian Fab supernatant on chimp-PSMA HEK cells (PSMG9), anti-human kappa-RPE. The method, then:
(§1) Individual Fab clones were isolated from the round 3 output of all panning experiments following pIX excision. Fab clones were tested for binding to chimp and cyno PSMA expressing HEK cells, as well as to human PSMA on LNCaP cells. Briefly, PSMA expressing cells were aliquoted into a V-bottom plate (CoStar 3357) at a density of 200,000 per well and incubated with (100 μl) supernatants expressing Fab fragments for 1 hour on ice. Cells were washed twice with PBS containing 2% FBS, and stained with a mouse anti-human kappa-RPE antibody (Life Technologies cat #MH10514) for 1 hour on ice. Cells were washed twice with PBS containing 2% FBS and resuspended in […] of the same wash buffer. Plates were read on a BD FACS Array flow cytometer. FACS data was analyzed in FlowJo software by live gating the healthy population of cells using forward scatter and side scatter, and then analyzing the cells within this gate for PE staining. Mean fluorescence intensity (MFI) was calculated and exported into Microsoft Excel. […] Fabs were sequenced and moved forward for cloning into mammalian expression vector for rescreening. True positives were selected from the binding of mammalian cell expressed Fab supernatants to PSMA-expressing cell lines.
(§2) FIGS. 22A, 22B, 22C and 22D show the titration curves for anti-PSMA panning hits vs. LNCaP cells. […]
Background: Flow cytometry measures light scatter and fluorescence of single cells or particles in a stream.

In assay [2] the target is T2, cynomolgus monkey PSMA on HEK cells (cynomolgus).
T2 construct: whole, on cells; also called Cyno-PSMA HEK; PSMG5
As to the kind of experiment: flow cytometry, mammalian Fab supernatant on cyno-PSMA HEK cells (PSMG5), anti-human kappa-RPE. An excerpt: (§3) (Mammalian Fab Supernatant Titration Curves for Anti-PSMA Phage Panning Hits vs Cyno PSMA HEK). […] In FIG. 24D, Mammalian-expressed supernatants were normalized for Fab expression via octet, and titrated against either human LNCAP, PSMG5 (Cyno-PSMA HEK), or PSMG9 (chimp-PSMA HEK) cells using flow cytometry. Geometric mean fluorescence intensity (GeoMFI) was plotted vs. Fab concertation using GraphPad Prizm.
(§4) A cell-based binding assay was designed to assess the binding capabilities of individual Fab-his fusions from E. coli supernatants to PSMA-expressing cells. Individual Fab clones were isolated from the round 3 output of all panning experiments following pIX excision. Fab clones were tested for binding to chimp and cyno PSMA expressing HEK cells, as well as to human PSMA on LNCaP cells. Briefly, PSMA expressing cells were aliquoted into a V-bottom plate (CoStar 3357) at a density of 200,000 per well and incubated with (100 μl) supernatants expressing Fab fragments for 1 hour on ice. […] Plates were read on a BD FACS Array flow cytometer. FACS data was analyzed in FlowJo software by live gating the healthy population of cells using forward scatter and side scatter, and then analyzing the cells within this gate for PE staining. Mean fluorescence intensity (MFI) was calculated and exported into Microsoft Excel. […]

The target in assay [3] is T2, cynomolgus monkey PSMA on HEK cells. The assay is described as above.
Excerpt: as §3, §4
The source holds these as a separate data set.

Assay [4] has as its target T1, chimpanzee PSMA on HEK cells. Description: flow cytometry, mammalian Fab supernatant on chimp-PSMA HEK cells (PSMG9), anti-human kappa-RPE. On the procedure: as §1, §2
This is another data set of the same source.

Assay [5] concerns the target T3, human PSMA on cells (LNCaP) (human, UniProt Q04609 1-750).
T3 construct: whole, on cells; also called LNCaP cells
As to the kind of experiment: flow cytometry, mammalian Fab supernatant on LNCaP cells, anti-human kappa-RPE. On the procedure: as §1
FIGS. 22A, 22B, 22C and 22D show the titration curves for anti-PSMA panning hits vs. LNCaP cells. […] Binding profiles among hits were compared across cell lines expressing different species of PSMA.

The target of assay [6] is T4, human CD3 on human T cells (human, UniProt P07766 23-207).
T4 construct: Native TCR-CD3 complex on cells; also called primary human T cells; human pan T cells
T4 sequence (P07766 23-207 limits assumed): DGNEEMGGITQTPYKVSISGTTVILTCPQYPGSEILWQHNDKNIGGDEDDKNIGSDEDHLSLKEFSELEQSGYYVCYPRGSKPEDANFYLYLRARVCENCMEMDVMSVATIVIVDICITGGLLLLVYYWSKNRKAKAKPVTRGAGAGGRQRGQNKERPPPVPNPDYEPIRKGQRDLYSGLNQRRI
Description: competition with AF488 SP-34 tracer on human pan T cells, flow cytometry. On the procedure: (§5) The mixture was added to the T cells for 2 hours at 4° C. Cells were then washed to remove un-bound antibody, fixed for 15 minutes, washed, and re-suspended in FACS Staining buffer containing 1 mM EDTA.
(§6) The iQue Intellicyte Flow Cytometer was used to measure binding. Cells were gated for T-cell population, followed by cell singlets, followed by Live Cells (FL4). Geometric mean of staining (FL1) was determined for each well. The acquired mean fluorescence intensity values were plotted as a function of the log antibody molecule concentration (converted to nM) and analyzed using Prism software in a sigmoidal dose-response (variable slope) from which the EC50/IC50 values (in nM) are derived. The binding affinity (Kd) was derived using the following formula: Kd=IC50/(1+([T]/KdT)).

A further assay deals with T5, Rh-integrin a4b7 (UniProt P13612 34-977; P26010 20-723, limits assumed).
T5 construct: rh read as recombinant human
Description: Biacore 8K SPR, antibody over immobilised protein. On the procedure: (§7) Non-specific binding of the lead molecule to unrelated surfaces is determined by biosensor technology (Biacore 8K). Antibody is passed over SPR surfaces coated with unrelated proteins. […] Irrelevant surfaces include negatively charged protein (Soy Trypsin Inhibitor), positively charged protein (Lysozyme and β-defensin), hydrophobic (Rh-integrin a4b7), human IgG, sticky protein (Rh-CD19). Proper controls are used in this experiment. Lead is flown over two surfaces, one is a blank and the other has a molecule directly immobilized. The response unit (RU) level is determined by subtracting the blank RU from the test surface RU. […] A response unit ≥100 predicts high risks for non-specific binding to charged/hydrophobic/IgG surfaces which would create challenges during manufacturing and translate to poor PK properties.
(In general: Surface plasmon resonance follows binding to a sensor surface in real time, without labels.)

The target in a further assay is T6, Rh-CD19 (UniProt P15391 20-291, limits assumed).
T6 construct: rh read as recombinant human
T6 sequence (looked up): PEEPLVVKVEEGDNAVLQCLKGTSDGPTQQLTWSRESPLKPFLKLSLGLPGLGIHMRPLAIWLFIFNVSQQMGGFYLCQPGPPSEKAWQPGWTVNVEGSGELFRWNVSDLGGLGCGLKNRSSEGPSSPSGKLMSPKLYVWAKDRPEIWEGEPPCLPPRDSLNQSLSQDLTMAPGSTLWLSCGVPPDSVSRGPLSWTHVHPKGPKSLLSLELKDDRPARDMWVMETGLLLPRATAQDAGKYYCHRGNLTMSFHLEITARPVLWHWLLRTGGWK
As to the kind of experiment: Biacore 8K SPR, antibody over immobilised protein. The method, then: as §7

Assay [7] concerns the target T4, human CD3 on human T cells. Description: Kd = IC50/(1+[T]/KdT) from competition with AF488 SP-34 on human pan T cells. The method, then:
as §5, §6

For the next assay, the target named is T7, Human CD33-C2-HSA (human).
T7 construct: C2 domain of human CD33 fused to HSA; also called C33W4; huCD33-C2-HSA
As to the kind of experiment: SPRi off-rate screen (IBIS MX96).

A further assay has as its target T8, Human CD33 ECD-HSA (human).
T8 construct: CD33 ECD fused at the C-terminus to monomeric HSA (C58S) and a six-histidine tag; also called C33W2; huCD33 ECD-HSA
As to the kind of experiment: SPRi off-rate screen (IBIS MX96).

Substitutions are numbered along the chain they refer to. Names and notes keep the numbering of the source. Where two headings read alike, the source gives them in different places.

T1 sequence (H2Q3K5 entry or part of it limits assumed): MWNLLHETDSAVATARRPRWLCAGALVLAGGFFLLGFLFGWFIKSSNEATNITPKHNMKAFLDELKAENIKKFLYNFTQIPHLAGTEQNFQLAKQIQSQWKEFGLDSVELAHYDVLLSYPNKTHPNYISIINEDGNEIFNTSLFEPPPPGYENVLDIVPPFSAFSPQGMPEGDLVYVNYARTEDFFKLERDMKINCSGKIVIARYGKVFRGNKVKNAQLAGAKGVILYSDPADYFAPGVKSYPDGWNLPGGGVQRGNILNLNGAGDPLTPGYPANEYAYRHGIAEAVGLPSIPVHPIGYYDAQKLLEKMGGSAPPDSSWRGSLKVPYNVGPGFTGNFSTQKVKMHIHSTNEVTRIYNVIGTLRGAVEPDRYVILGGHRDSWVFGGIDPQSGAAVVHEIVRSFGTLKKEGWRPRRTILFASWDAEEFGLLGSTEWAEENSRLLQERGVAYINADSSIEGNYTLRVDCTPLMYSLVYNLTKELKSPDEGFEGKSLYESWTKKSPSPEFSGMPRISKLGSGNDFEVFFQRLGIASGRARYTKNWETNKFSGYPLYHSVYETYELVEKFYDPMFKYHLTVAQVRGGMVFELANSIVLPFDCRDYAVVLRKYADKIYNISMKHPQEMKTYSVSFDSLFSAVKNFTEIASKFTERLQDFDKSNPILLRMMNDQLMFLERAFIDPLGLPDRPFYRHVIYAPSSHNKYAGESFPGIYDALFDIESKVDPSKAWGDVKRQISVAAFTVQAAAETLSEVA
T3 sequence (Q04609 whole entry): as the sequence (H2Q3K5 entry or part of it limits assumed) above, with L155S, H281R, Y475H, N613S, T647S, L660V, D727E, S733Y counted along it

B1: PSMM52 (Fab, V domains shown)
VH: QVQLVQSGAEVKKPGSSVKVSCKASGGTFSSYAISWVRQAPGQGLEWMGWIIPYNGNANYAQKFQGRVTITADESTSTAYMELSSLRSEDTAVYYCARVNSAALVWERLDYWGQGTLVTVSS
VL: DIQMTQSPSSLSASVGDRVTITCRASQSIDRWLNWYQQKPGKAPKLLIYAASSLQSGVPSRFSGSGSGTDFTLTISSLQPEDFATYYCQQSPRYPLTFGQGTKVEIK
notes: Mammalian Fab supernatant; also called PSMB51
For orientation: EC50 (read off the curve) means the concentration giving half of the maximal effect. Regarding B1, the “EC50 (read off the curve)” value in [1] was about 0.2 µg/mL; in assay [2], about 0.2 µg/mL; in assay [3], about 0.2 µg/mL; in assay [4] it was about 0.2 µg/mL; in assay [5] it was about 0.3 µg/mL.

B2: CD3B376 (antibody, human IgG4 S228P, lambda, F234A L235A, V domains shown)
VH: QVQLQQSGPRLVRPSQTLSLTCAISGDSVFNNNAAWSWIRQSPSRGLEWLGRTYYRSKWLYDYAVSVKSRITVNPDTSRNQFTLQLNSVTPEDTALYYCARGYSSSFDYWGQGTLVTVSS
VL: QSALTQPASVSGSPGQSITISCTGTSSNIGTYKFVSWYQQHPDKAPKVLLYEVSKRPSGVSSRFSGSKSGNTASLTISGLQAEDQADYHCVSYAGSGTLLFGGGTKLTVLG
notes: IgG4 PAA (S228P, F234A, L235A); LC is CD3L124 with C91V; also called CD3H219/CD3L150; bivalent CD3B376
For orientation: IC50 means the midpoint of a concentration-inhibition curve. In general, Kd refers to the free concentration of one partner at which half of the binding sites on the other are occupied at equilibrium, for simple one-to-one binding. As for B2, the IC50 in assay [6] worked out at 29 nM. Moreover, the binding result with Rh-integrin a4b7 and with Rh-CD19 was “no binding (tested: response unit ≥100 predicts high risks)” in each case. Binding in [7] was characterised by a dissociation constant (Kd) of 7.3 nM.

B3: CD3B450 (antibody, human IgG4 S228P, lambda, F234A L235A, V domains shown)
VH: B2 VH with R10G, R13K, V73I, R79K, T83S, L96V
VL: B2 VL with D43G, L49M, L50I, S62N, Q85E, H89Y
notes: IgG4 PAA; also called CD3H231/CD3L197; bivalent CD3B450
Consider B3, for which, in [6], the IC50 is 60 nM. Moreover, binding in assay [7] was put at a Kd of 15 nM.

B4: C33B778 (antibody, IgG4, V domains shown)
VH: QVQLVESGGGVVQPGRSLRLSCVASGFTFSSYGMHWVRQAPGKGLEWVAVISYDGSNKYYADSVKGRFTISRDNSKNTLYLQMNSLRAEGTAVYYCAKDFRSFDWLPPDSASYHGMDVWGQGTTVTVSS
VL: SYELTQPPSVSVSPGQTASITCSGDKLGDKYACWYQQKPGQSPVLVIYQDGKRPSGIPERFSGSNFGNKATLTISGTQAMDEADYYCQAWDRNTVVFGGGTKLTVL
notes: also called C33H66/C33L60; C33F78
A word on the koff: it is a measure of how fast the partners let go of each other. As for B4, the koff was 0.00257 s⁻¹ in the assay with Human CD33-C2-HSA and 4.72e-05 s⁻¹ with Human CD33 ECD-HSA.

B5: PSMM85 (Fab, V domains shown)
VH: EVQLLESGGGLVQPGGSLRLSCAASGFTFDSDWMSWVRQAPGKGLEWVSAISGNGGSTEYADSVKGRFTISRDNSKNTLYLQMNSLRAEDTAVYYCARDPYYYYDGDSYYGMDVWGQGTLVTVSS
VL: not shown
notes: Mammalian Fab supernatant; also called PSMB84
Regarding B5, in assay [2], the “EC50 (read off the curve)” value was about 0.4 µg/mL.

B6: PSMM59 (Fab, V domains shown)
VH: EVQLVQSGAEVKKPGESLKISCKGSGYSFTSYWISWVRQMPGKGLEWMGIIYPGDSYTRYSPSFQGQVTISADKSISTAYLQWSSLKASDTAMYYCARDYEWELFDSRLDYWGQGTLVTVSS
VL: not shown
notes: Mammalian Fab supernatant; also called PSMB58
In the case of B6, the “EC50 (read off the curve)” value in assay [3] is about 0.2 µg/mL.

These data come from patent US20230322924A1 (Janssen / Centocor, published 2023).
